This test concerns the target T1, full length human TRAIL receptor (TRAIL-R) (human, UniProt O14763 56-440).
T1 construct: The signal peptide is only predicted (residues 1-51)
Nature of the test: flow cytometry on transfected CV-1/EBNA cells, LZ-TRAIL at 5 µg/ml. How it is done: CV-1/EBNA cells were co-transfected with pDC409-TRAIL-R together with pDC409-CrmA, or with pDC409-CrmA alone. The cells were cultured in DMEM supplemented with 10% fetal bovine serum, penicillin, streptomycin, and glutamine. […] The cytometric analysis was conducted on a FACscan (Beckton Dickinson, San Jose, Calif.).
(In general: Flow cytometry measures light scatter and fluorescence of single cells or particles in a stream.)

B1: LZ-TRAIL (leucine zipper peptide fused to the N-terminus of a soluble human TRAIL polypeptide) (ligand, UniProt P50591 95-281, looked up)
chain: TSEETISTVQEKQQNISPLVRERGPQRVAAHITGTRGRSNTLSSPNSKNEKALGRKINSWESSRSGHSFLSNLHLRNGELVIHEKGFYYIYSQTYFRFQEEIKENTKNDKQMVQYIYKYTSYPDPILLMKSARNSCWSKDAEYGLYSIYQGGIFELKENDRIFVSVTNEHLIDMDHEASFFGAFLVG
notes: range 95-281; also called LZ-huTRAIL; not shown: modified leucine zipper that allows for trimerization
For the molecule B1, the binding result is recorded as “binds”.

These data come from patent US20100015137A1 (IMMUNEX, published 2010).
